Literature values, collected in patent US20240247069A1, “FGFR3 BINDING MOLECULES AND METHODS OF USE THEREOF” (Regeneron Pharmaceuticals, Inc., priority 2023, published 2024).
Changes are numbered by the printed parent chain. In names and notes the source's numbering stands.

B1: MS-Pro-59: anti-FGFR3 Ig-like domain 3 antibody of WO 2002/102972 A2; VH SEQ ID NO:28, VL SEQ ID NO:29 (antibody, V domains shown)
VH: QVQLQQSGPGLVKPSQTLSLTCAISGDSVSSNSAAWNWIRQSPGRGLEWLGRTYYRSKWYNDYAVSVKSRITINDTSKNQFSLQLNSVTPEDTAVYYCARSYYPDFDYWGQGTVTVSS
VL: DIELTQPPSVSVAPGQTARISCSGDALGDKYASWYQQKPGQAPVLVIYDDSDRPSGIPERFSGSNSGNTATLTISGTQAEDEADYYCQSYDGPDLWVFGGGTKLTVLGQ
B2: 184.6.1.N54S: anti-FGFR3 Ig-like domain 3 antibody of WO 2010/111367 A1; VH SEQ ID NO:63, VL SEQ ID NO:64 (antibody, V domains shown)
VH: EVQLVESGGGLVQPGGSLRLSCAASGFTFTSTGISWVRQAPGKGLEWVGRIYPTSGSTNYADSVKGRFTISADTSKNTAYLQMNSLRAEDTAVYYCARARTYGIYDLYVDYTEYVMDYWGQGTLV
VL: DIQMTQSPSSLSASVGDRVTITCRASQDVDTSLAWYQQKPGKAPKLLIYSASFLYSGVPSRFSGSGSGTDFTLTISSLQPEDFATYYCQQSTGHPQTFGQGTKVEIKR
B3: 184.6.58: anti-FGFR3 Ig-like domain 3 antibody of WO 2010/111367 A1 (aka R3Mab); VH SEQ ID NO:65, VL SEQ ID NO:66; comparator REGN6331 (antibody, V domains shown)
VH: B2 VH with G49A, S55N
VL: B2 VL with T31I, S91G, T92A, H94N, Q96Y
notes: anti-FGFR3 Ig-like domain 3 antibody of WO 2010/111367 A1 (aka R3Mab); comparator REGN6331
B4: 184.6.62: anti-FGFR3 Ig-like domain 3 antibody of WO 2010/111367 A1; VH SEQ ID NO:67, VL SEQ ID NO:68 (antibody, V domains shown)
VH: B2 VH with T30S, S31T, G49A, T54L, S55Y, N59H
VL: B2 VL with D30S, S32A, L33V, S91T, T92Y, G93T, H94T, P95S, Q96L
B5: 184.6.1.NS D30E: anti-FGFR3 Ig-like domain 3 antibody of WO 2010/111367 A1; VH SEQ ID NO:63, VL SEQ ID NO:69 (antibody, V domains shown)
VH: B2 VH
VL: B2 VL with D30E
B6: MS-Pro-11: anti-FGFR3 Ig-like domain 3 antibody of WO 2002/102972 A2; VH SEQ ID NO:30, VL SEQ ID NO:31 (antibody, V domains shown)
VH: QVQLVQSGAEVKKPGASVKVSCKASGYTFTSYYMHWVRQAPGQGLEWMGWINPNSGGTNYAQKFQGRVTMTRDTSISTAYMELSSLRSEDTAVYYCARYYGSSLYHYVFGGFIDYWGQGTLVTVSS
VL: DIALTQPASVSGSPGQSITISCTGTSSDVGGYNYVSYQQHPGKAPKLMIYDVSNRPSGVSNRFSGSKSGNTASLTISGLQAEDEADYYCQSHHFYEVFGGGTKLTVLGQ
B7: KE58: anti-FGFR3 IIIb and IIIc antibody of WO 2022/040560 A1; VH SEQ ID NO:78, VL SEQ ID NO:79 (antibody, V domains shown)
VH: EVQLQQSGPDLVKPGASVKISCKASGYTVTDYYMNWVKQSHGKSLEWIGDINPNNGVTTYNQKFKDKATLTVDKSSSTAYMELRSLTSEDSAVYYCAREEDFDGFDYWGQGTTLTVSS
VL: DIVMTQSHKFMSTSVGDRVSITCKASQDVSTGVAWYQQKPGQSPQLLIYWASTRHTGVPDRFTGSGSGTDYILTIRSVQAEDLALYYCQQHYSTPLTFGAGTKLELK
B8: KE94: anti-FGFR3 IIIb and IIIc antibody of WO 2022/040560 A1; VH SEQ ID NO:82, VL SEQ ID NO:83 (antibody, V domains shown)
VH: QVQLQQSGAELVRPGASVTLSCKASGSTFTDFEIHWVKQTPVHGLEWIGAIDPETGGTAYNQKFKGKAILTAVKSSSTAYMGLRSLTSEDSAVYYCTRNYDGYSRTMDYWGQGTSVTVSS
VL: NIMMTQSPSSLAVSAGEKVTMSCKSSQSVLYSSNQKNYLAWYQQKPGQSPKLLIYWASTRESGVPDRFTGSGSGTDFSLSISSVQTEDLAVYYCHQYLSSYTFGGGTRLEMK
B9: KC18: anti-FGFR3 IIIb and IIIc antibody of WO 2022/040560 A1; VH SEQ ID NO:72, VL SEQ ID NO:73 (antibody, V domains shown)
VH: QVQLQQSGAELVRPGASVTLSCKASGDTFTDFEIHWVKQTPVHGLEWIGDIDPETGGTAYNQKFRGRAMLTADRSSSTAYMELRSLTSEDSAVYYCTRTYDGYPYAMDYWGQGTSVTVSS
VL: DIVMSQSPSSLAVSVGEKVTMSCKSSQSLLYSNNQKNYLAWYQQKPGQSPKLLIYWASTRESGVPDRFTGSGSGTDFTLTISSVKAEDLAVYYCQQYYSYRTFGGGTKLEIK
B10: KE63: anti-FGFR3 IIIb and IIIc antibody of WO 2022/040560 A1; VH SEQ ID NO:80, VL SEQ ID NO:81 (antibody, V domains shown)
VH: B8 VH with T30S, A50G, V73D, K74R, G82E, R105Q
VL: B8 VL with S78T, S80T, T86A, R108K
B11: MS-Pro-26: anti-FGFR3 Ig-like domain 3 antibody of WO 2002/102972 A2; VH SEQ ID NO:36, VL SEQ ID NO:37 (antibody, V domains shown)
VH: QVQLVQSGAEVKKPGASVKVSCKASGYTFTSYYMHWVRQAPGQGLEWMGWINPNSGGTNYAQKFQGRVTMTRDTSISTAYMELSSLRSEDTAVYYCARGYWYAYFTYINYGYFDNWGQGTLVTVSS
VL: DIALTQPASVSGSPGQSITISCTGTSSDVGGYNYVSWYQQHPGKAPKLMIYDVSNRPSGVSNRFSGSKSGNTASLTISGLQAEDEADYYCQSYDNNSDWFGGGTKLTVLGQ
B12: KE35: anti-FGFR3 IIIb and IIIc antibody of WO 2022/040560 A1; VH SEQ ID NO:74, VL SEQ ID NO:75 (antibody, V domains shown)
VH: EVQLQQSGPELVKPGASVKMSCKASGYTFTDYNMHWVKQSHGKSLEWIGYINPNNGGTRYNQKFKGKATLTVNKSSSTAYMELRSLTSEDSAVYYCARERDYDGAMDYWGQGTSVTVSS
VL: DIQMTQSPSSLSASLGGKVTITCKASQDINKFIAWYQHKPGKGPRLLIHYTSTLQPGIPSRFSGSGSGRDYSFSISNLEPEDIATYYCLQYDNLLWTFGGGTKLEIK
B13: KE42: anti-FGFR3 IIIb and IIIc antibody of WO 2022/040560 A1; VH SEQ ID NO:76, VL SEQ ID NO:77 (antibody, V domains shown)
VH: B12 VH with E46Q, R59N, K63N, G66D, S77T, A105S, Y108F
VL: B12 VL with Y87F
B14: FGA0005: anti-FGFR3 (S249C mutant) antibody of WO 2021/010326 A1; VH SEQ ID NO:86, VL SEQ ID NO:87 (antibody, V domains shown)
VH: QSLEESGGRLVTPGTPLTLTCTASGFSLSTYWICWVRQAPGEGLEWIGYISSSGNTYYASWAKGRFTISKTSSTTVDLKMTSLTTEDTATYFCGGHNSDYITGWALDPWGPGTLVTVSS
VL: AAVLTQTASPMSAAVGGTVTINCQSSKSVYRDKWLSWFQQKPGQPPKLLIYGASNLASGVSSRFKGSGSGTQFTLTISDVQCDDAATYYCLGGYSDNSEDAFGGGTEVVVK
B15: B-701: anti-FGFR3 antibody of WO 2016/134234 A1; VH SEQ ID NO:70, VL SEQ ID NO:71 (antibody, V domains shown)
VH: EVQLVESGGGLVQPGGSLRLSCAASGFTFTSTGISWVRQAPGKGLEWVGRIYPTSGSTNYADSVKGRFTISADTSKNTAYLQMNSLRAEDTAVYYCARTYGIYDLYVDYTEYVMDYWGQGTLV
VL: B2 VL with Q37K
B16: FGA0007: anti-FGFR3 (S249C mutant) antibody of WO 2021/010326 A1; VH SEQ ID NO:88, VL SEQ ID NO:89 (antibody, V domains shown)
VH: QSVEESGGRLVTPGTPLTLTCTVSGFSLSSYPMSWVRQAPGKGLEWIGIISSSGRTYYASWAKGRFTISKASSTTAALKMTSLTTEDTATYFCARGGVYKYDDYGDYVLNLWGRGTLVTVSS
VL: AIEMTQTPFSVSAAVGGTVTINCQASENIYSNLAWYQQKPGQPPKLLIYAASYLASGVPSRFKGSGSGTDYTLTISGVQCADAATYYCQCTLYSSTYGVAFGGGTEVVVK
B17: FGA0002: anti-FGFR3 (S249C mutant) antibody of WO 2021/010326 A1; VH SEQ ID NO:84, VL SEQ ID NO:85 (antibody, V domains shown)
VH: QELVESGGGLVQPGGSLKLSCKASGIDFSSYGISWVRQAPGKGLEWIAYIVPGFGIRNYANSVKGRFTISSDNAQNTVFLQMTSLTASDTATYFCARVPQYASSSGYYLPFNLWGPGTLVTVSS
VL: ALVMTQTPSPVSAAVGGTVTINCQASEDIYYNLAWFQQKPGQPPKLLIYRASTLASGVPSRFSGSGSGTEFTLTISDVQCDDAATYYCLGVYTYISADGNAFGGGTEVVVK

Test system: FGFR3
Conditions: Table T-3, exemplary FGFR3 D3 binding sequences from cited PCT publications

| Molecule | Activity |
| --- | --- |
| B1 | Antagonistic |
| B2 | Antagonistic |
| B3 | Antagonistic |
| B4 | Antagonistic |
| B5 | Antagonistic |
| B6 | Antagonistic |
| B7 | Antagonistic |
| B8 | Antagonistic |
| B9 | Antagonistic |
| B10 | Antagonistic |
| B11 | Antagonistic |
| B12 | Antagonistic |
| B13 | Antagonistic |

Same assay, conditions: literature antibodies, sequences from cited PCT publications

| Molecule | Activity |
| --- | --- |
| B14 | Antagonistic |
| B1 | Antagonistic |
| B2 | Antagonistic |
| B15 | Antagonistic |
| B3 | Antagonistic |
| B4 | Antagonistic |
| B5 | Antagonistic |
| B6 | Antagonistic |
| B7 | Antagonistic |
| B8 | Antagonistic |
| B9 | Antagonistic |
| B10 | Antagonistic |
| B16 | Antagonistic |
| B11 | Antagonistic |
| B12 | Antagonistic |
| B13 | Antagonistic |
| B17 | Antagonistic |
